Test results taken from patent US20110033543A1 (UNIVERSITY OF DELAWARE, published 2011).
Ends that are not written are not given here.

What was measured:
[1] = biological target: T1, streptavidin (SA chip) (UniProt P22629 37-163, limits assumed); assay: SPR, Biacore 3000, streptavidin-coated chip
T1 construct: Chip surface of the SPR experiments; also called SA chips; streptavidin-coated chip
Experimental: Surface Plasmon Resonance (SPR). SPR sensorgrams were recorded on a BiaCore 3000 instrument (Biacore Inc, Piscataway, N.J.), employing a high-capacity LMWH surface created on a commercially available streptavidin-coated chip via treatment with biotinylated LMWH.
In SPR experiments, the interaction of the peptides with a LMWH-modified SA chip surface was determined under conditions described in the experimental section.

[2] = biological target: the molecule itself; assay: circular dichroism, concentration dependence of MRE at 222 nm in PBS, fit for the Kd of the dimerization; isolated PF4ZIP, not conjugated to PEG
Experimental: Samples were equilibrated at the desired temperature for 30 minutes prior to data collection; equilibration was indicated by the absence of further changes in the CD signal at longer equilibration times. All CD spectra were taken in a 1 mm path length quartz cuvette, at wavelengths from 200 to 250 nm. Data points were recorded at every nanometer with a 4.0 s response time. The concentrations of peptide samples were determined via amino acid analysis for calculation of mean residue ellipticities.
The conformation of PF₄ZIP at various concentrations was also monitored via CD. […] The difference between the measured ellipticity and the ellipticity of the unfolded monomer is related to concentration and can be fit to determine the Kd of the dimerization, via standard fitting procedures well-described in the literature.

T1 sequence (P22629 37-163 limits assumed): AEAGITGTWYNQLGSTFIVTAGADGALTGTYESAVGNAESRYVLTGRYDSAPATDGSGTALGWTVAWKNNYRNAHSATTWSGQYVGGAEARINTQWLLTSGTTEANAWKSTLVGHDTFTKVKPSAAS

B1: PF4ZIP (peptide)
peptide: CGGRMKQLEDKVKKLLKKNYHLENEVARLKKLVG-NH2
modifications: also: coiled-coil dimer
notes: also called coiled-coil PF4ZIP
binding result [1]: no binding | Kd [2]: 3.48 µM
